From US20150355179A1 (CENTRE NATIONAL DE LA RECHERCHE SCIENTIFIQUE CNRS, published 2015) come the findings set out here.

This assay deals with monomeric CDK2 (GST-CDK2/CIV in the absence of cyclin A) (UniProt P24941 1-298). As to the kind of experiment: real-time fluorescence assay with Cy3-labelled sensor. The protocol: Fluorescence emission of Cy3 was measured at 590 nm following excitation at 544 nm on Polarstar™ fluorimeter.
Fluorescence kinase assays were performed in 96-well plates in a thermostated chamber (Polarstar BMG) at 30° C. in 200 ul phosphate buffer saline, pH 7.2, 150 mM NaCl, in the presence of 5 mM MgCl2, 0.5 mM ATP, except when stated otherwise. […] Changes in Cy3 fluorescence emission were recorded at 590 nm following excitation at 544 nm. […] Data analysis and curve fitting were performed using the GraFit Software (Erathicus Ltd).

B1: GST-CDKACTH1 labelled with Cy3 (CDKACTH1-Cy3) (other)
chain: GEVVDSHLSDMLQQLHSVNASKPSERGLVRQEEAEDPASIPIFWVSKWVDYSDKYGLGYQLSDNSVGVLFNDSTRLILYNDGDSLQYIERDGTESYLTVSSHPNSLMKKITLLKYFRNYMSEHLLKAGANITPREGDELARLPYLRTWFRTRSAIILHLSNGSVQINFFQDHTKLILSPLMAAVTYIDEKRDFRTYRLSLLEEYGSSKELASRLRYARTMVDKLLSSRSASNRLKASPGAGGTGGLPGGGGCSTPKKAKKL
modifications: Cy3-maleimide coupled to the unique cysteine of the substrate sequence (position -2 of the TP phosphorylation site)
notes: The GST tag was not removed; also called CDKACT-Cy3; CDKACT-H1 biosensor; not shown: N-terminal GST tag from the pGex6P1 vector, kept on the biosensor
For the molecule B1, the binding result was “no binding”.
